# Measurements: patent US20190375786A1, “STABLE PEPTIDES AND METHODS OF USE THEREOF” (Fred Hutchinson Cancer Research Center, priority 2016, published 2019)
# “Also recorded” adds a separate entry of the source. Positions of bridges follow the written chain, without caps; N, C: chain ends. Residues, ends and D or L forms follow the SMILES beside them.
# Experiments:
# trypsin = trypsin (Sus scrofa, UniProt P00761); experiment: Trypsin digestion resistance of soluble peptide, RP-HPLC; format: in vitro ADME, porcine; design: purchased Sigma Aldrich 6567; conditions: 500 U/ml trypsin (50 U per reaction), 30 minutes at 37.5° C.; HPLC
# Procedure: (§1) Peptides were first suspended in 500 μl of ddH2O to a stock concentration of 2 mg/ml. Reactions were prepared by adding 12.5 μg of peptide from the stock solution to a 10 mM solution of DTT in PBS and allowed to incubate at room temperature for 30 minutes. Other reactions were prepared with 12.5 μg peptide and 500 U/ml trypsin in 25 mM Tris/75 mM NaCl buffer (pH 7.0) and incubated for 30 minutes at 37.5° C. These reactions were then quenched with 5 μg of soybean trypsin inhibitor (I) and, in some cases, 10 mM dithiothreitol (DTT). Reversed phase HPLC (RP-HPLC) was run on samples using an Agilent 1260 HPLC equipped with a C-18 Poroshell 120B column. Sample were analyzed by a gradient method with a mobile phase of Solvent A (water with 0.1% TFA) and Solvent B (acetonitrile with 0.1% TFA). Solvent B was ramped up from 5%-45% of the mobile phase over a period of 10 minutes. For testing pepsin digestion resistance, reactions were prepared with 12.5 μg peptide with or without 500 U/ml pepsin in simulated gastric fluid (SGF; pH 1.05; […] sodium chloride in 0.7% (v/v) hydrochloric acid) and were incubated for 30 minutes at 37.5° C. For testing temperature resistance, peptides were incubated at 70° C., 75° C., or 100° C. for one hour in 0.5 mM PBS, pelleted, and then the supernatant was analyzed by HPLC.
# (§2) This example illustrates peptide stability in biological conditions including in the presence of reducing agents, proteases, oxidative conditions, acidic conditions, and simulated gastric fluids. […] Various peptides were suspended in 500 μl of ddH2O at a stock concentration of 2 mg/ml. This was then diluted in accord with the reaction conditions to prevent adverse buffering effects. Reactions were prepared with 12.5 μg peptide dissolved in solution and, in some samples, additionally suspended in a 10 mM solution of DTT, simulated gastric fluid (pH 1.05; […] sodium chloride in 0.7% (v/v) hydrochloric acid), 500 U pepsin (5000 U/ml pepsin), 50 U trypsin (500 U/ml trypsin) with 1 mg/ml inhibitor in PBS, or a combination of any of these conditions. All protease reactions were incubated for 30 min at room temperature and then quenched. Pepsin reactions were quenched by adding Tris base to a final concentration of 0.075 M. Trypsin reactions were quenched by adding excess soybean trypsin inhibitor. RP-HPLC was then run on samples using an Agilent 1260 HPLC equipped with a C-18 Poroshell 120B column. Sample were analyzed by a gradient method with a mobile phase of Solvent A (water with 0.1% TFA) and Solvent B (acetonitrile with 0.1% TFA). Solvent B was ramped up from 5%-45% of the mobile phase over a period of 10 minutes.
# Soluble peptides were exposed to 500 U/mL porcine trypsin and analyzed by HPLC. Protease resistance was also assessed by using SDPR-displaying peptides. The SDPR vector is similar to the a surface display GFP FasL(SDGF) vector, but contains a C-terminal 6×His tag (SEQ ID NO: 180) and all basic or aromatic amino acid residues on the stalk removed. Protease resistance is then tested by incubation of cells displaying peptides with trypsin or chymotrypsin, followed by incubation in 10 mM DTT, and staining with an anti-6×His fluorophore-labeled antibody (“6×His” disclosed as SEQ ID NO: 180). If peptides are uncleaved, they retain the His tag and are stained with by the antibody. A control protease-sensitive knottin peptide (SK) was used as a positive control. Cells displaying peptides were treated with up to 40 μg/ml trypsin or chymotrypsin.
# FIG. 21 illustrates high performance liquid chromatograph (HPLC) traces of peptides after trypsin digestion. […] The assay was carried out by reconstituting 1 mg porcine trypsin (Sigma Aldrich 6567) in 1 mL of 1 mM HCl. Trypsin was provided at a concentration of 10,000 u/mL and thus, 5 μl of stock solution was equivalent to using 50 U of trypsin in each reaction. Soybean trypsin inhibitor (SA T9128) was prepared at 1 mg/mL of in H2O. […]
# pepsin = pepsin (Sus scrofa, UniProt P00791); experiment: Pepsin digestion resistance in simulated gastric fluid, RP-HPLC; format: in vitro ADME, porcine; design: purchased Sigma Aldrich P7012; conditions: 500 U/ml pepsin (50 U per reaction) in SGF, 30 minutes at 37.5° C.; HPLC
# Procedure: Peptides were first suspended in 500 ul of ddH2O to a stock concentration of 2 mg/ml. Reactions were prepared by adding 12.5 ug of peptide from the stock solution to a 10 mM solution of DTT in PBS and allowed to incubate at room temperature for 30 minutes. Other reactions were prepared with 12.5 μg peptide with or without 500 U/ml pepsin in simulated gastric fluid (SGF; pH 1.05; […] sodium chloride in 0.7% (v/v) hydrochloric acid) and were incubated for 30 minutes at 37.5° C. Some reactions were quenched with a final concentration of 100 mM Tris base and 10 mM dithiothreitol (DTT). Some reactions were performed in all of the above components, including simulated gastric fluid, pepsin, Tris, and DTT (referred to as SPTD). Reversed phase HPLC (RP-HPLC) was run on samples using an Agilent 1260 HPLC equipped with a C-18 Poroshell 120B column. Sample were analyzed by a gradient method with a mobile phase of Solvent A (water with 0.1% TFA) and Solvent B (acetonitrile with 0.1% TFA). Solvent B was ramped up from 5%-45% of the mobile phase over a period of 10 minutes. Peptides were detected at an absorbance of 214 nm and 280 nm.
# as §1, §2
# FIG. 20 illustrates high performance liquid chromatograph (HPLC) traces of peptides after pepsin digestion. […]
# [1] = Resistance to elevated temperature, HPLC; format: physicochemical; conditions: HPLC; for resistance to incubation at 70° C. (in words): 70° C. for 1 hour; for resistance to incubation at 100° C. (in words): 100° C. for 1 hour
# Procedure: as §1
# This example illustrates peptide stability at high temperatures. Peptides were first suspended in 500 μl of ddH2O to a stock concentration of 2 mg/ml. Reactions were prepared by adding 6.25 μl of peptide from the stock solution with 95 μl ddH2O and incubated at room temperature, 70° C., or 100° C. for one hour in a Thermocycler. RP-HPLC was then run on samples using an Agilent 1260 HPLC equipped with a C-18 Poroshell 120B column. Sample were analyzed by a gradient method with a mobile phase of Solvent A (water with 0.1% TFA) and Solvent B (acetonitrile with 0.1% TFA). Solvent B was ramped up from 5%-45% of the mobile phase over a period of 10 minutes.
# trypsin, sequence (P00761 9-231): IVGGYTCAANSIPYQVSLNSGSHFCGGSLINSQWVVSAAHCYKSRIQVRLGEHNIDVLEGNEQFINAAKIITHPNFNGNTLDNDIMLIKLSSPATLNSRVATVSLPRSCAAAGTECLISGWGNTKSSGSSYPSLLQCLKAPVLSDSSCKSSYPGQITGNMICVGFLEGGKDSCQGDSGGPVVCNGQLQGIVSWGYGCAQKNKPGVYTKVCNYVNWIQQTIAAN
# pepsin, sequence (P00791 60-385): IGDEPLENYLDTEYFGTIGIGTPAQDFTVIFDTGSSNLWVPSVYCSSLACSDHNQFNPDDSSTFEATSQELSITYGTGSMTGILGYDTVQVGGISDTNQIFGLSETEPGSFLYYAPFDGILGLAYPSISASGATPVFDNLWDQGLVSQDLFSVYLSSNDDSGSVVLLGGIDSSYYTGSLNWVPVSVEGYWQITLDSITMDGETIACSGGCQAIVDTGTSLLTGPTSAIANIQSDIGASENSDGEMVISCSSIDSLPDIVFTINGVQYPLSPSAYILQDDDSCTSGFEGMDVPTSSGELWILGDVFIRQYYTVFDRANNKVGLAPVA
molecule,measurement,setting,value
"CSCC[C@@H]1NC(=O)[C@@H]2CSSC[C@H](NC(=O)[C@H](CCCCN)NC(=O)[C@@H](NC(=O)[C@H](CC(=O)O)NC(=O)[C@@H](NC(=O)[C@H](Cc3ccccc3)NC(=O)[C@H](CCC(N)=O)NC(=O)[C@H](CO)NC(=O)CN)[C@@H](C)O)C(C)C)C(=O)N[C@@H]([C@@H](C)O)C(=O)NCC(=O)N[C@@H](CO)C(=O)N[C@@H](CCCCN)C(=O)N[C@@H](CCC(N)=O)C(=O)N[C@H]3CSSC[C@H](NC(=O)[C@H](CCCCN)NC(=O)CNC(=O)[C@H](CC(N)=O)NC1=O)C(=O)N[C@@H](CCCNC(=N)N)C(=O)N[C@H](C(=O)N[C@@H](Cc1ccc(O)cc1)C(=O)N[C@@H](CO)C(=O)O)CSSC[C@H](NC(=O)[C@H](C(C)C)NC(=O)[C@@H]1CCCN1C(=O)[C@H](Cc1c[nH]c4ccccc14)NC3=O)C(=O)N[C@@H](CCCCN)C(=O)N[C@@H](CCC(N)=O)C(=O)N[C@@H](CCSC)C(=O)N[C@@H](Cc1ccccc1)C(=O)NCC(=O)N[C@@H](CCCCN)C(=O)N1CCC[C@H]1C(=O)N[C@@H](CC(N)=O)C(=O)NCC(=O)N[C@@H](CCCCN)C(=O)N2 [SEQ ID NO: 12] (H-GSQFTDVKCTGSKQCWPVCKQMFGKPNGKCMNGKCRCYS-OH; disulfide 9-30, 15-35, 19-37)",resistance to trypsin digestion (in words),trypsin,moderately resistant
same,resistance to pepsin digestion (in words),pepsin,highly resistant
"CC[C@H](C)[C@@H]1NC(=O)[C@@H](NC(=O)[C@H](CC(=O)O)NC(=O)[C@H](CCCCN)NC(=O)[C@H](CCC(=O)O)NC(=O)[C@H](CO)NC(=O)[C@H](CO)NC(=O)CN)CSSC[C@@H]2NC(=O)[C@@H]3CSSC[C@@H](C(=O)N[C@@H](CCCNC(=N)N)C(=O)O)NC(=O)[C@H](CCCNC(=N)N)NC(=O)[C@H](CCCCN)NC(=O)[C@H](CCC(=O)O)NC(=O)[C@@H]4CCCN4C(=O)[C@H](CC(N)=O)NC(=O)[C@H]([C@@H](C)O)NC(=O)CNC(=O)[C@H](CCCNC(=N)N)NC(=O)[C@H](CCCNC(=N)N)NC(=O)[C@H](CO)NC(=O)[C@H](CSSC[C@H](NC(=O)[C@H](CCCNC(=N)N)NC(=O)[C@H](CCC(N)=O)NC(=O)[C@H](CC(C)C)NC(=O)[C@H](Cc4c[nH]cn4)NC(=O)[C@H](CCCCN)NC1=O)C(=O)N[C@@H](CCCNC(=N)N)C(=O)N[C@@H](CCC(=O)O)C(=O)N[C@@H](CC(N)=O)C(=O)N[C@@H](CCCCN)C(=O)N[C@@H](CC(=O)O)C(=O)N3)NC(=O)[C@H](CCCCN)NC(=O)[C@H](CCCCN)NC(=O)[C@H](CO)NC2=O [SEQ ID NO: 29] (H-GSSEKDCIKHLQRCRENKDCCSKKCSRRGTNPEKRCR-OH; disulfide 7-21, 14-25, 20-36)",resistance to pepsin digestion (in words),pepsin,resistant
CC[C@H](C)[C@@H]1NC(=O)[C@H](CCCCN)NC(=O)[C@@H](NC(=O)[C@H](CCCCN)NC(=O)[C@@H](NC(=O)[C@H](CC(N)=O)NC(=O)[C@@H](NC(=O)[C@@H](NC(=O)[C@@H](NC(=O)CNC(=O)[C@H](CO)NC(=O)CN)C(C)C)[C@@H](C)CC)[C@@H](C)CC)C(C)C)CSSC[C@@H]2NC(=O)[C@H](CCCCN)NC(=O)CNC(=O)[C@H](Cc3ccccc3)NC(=O)[C@H](CCCNC(=N)N)NC(=O)[C@H](CCSC)NC(=O)CNC(=O)[C@H](C)NC(=O)[C@H](CCCCN)NC(=O)[C@H](CCCCN)NC(=O)[C@@H]3CSSC[C@@H](C(=O)N[C@H](C(=O)N4CCC[C@H]4C(=O)N[C@@H](CCCCN)C(=O)O)[C@@H](C)O)NC(=O)[C@H](Cc4c[nH]cn4)NC(=O)[C@H](CSSC[C@H](NC(=O)[C@H](CCC(N)=O)NC(=O)[C@H](CCCNC(=N)N)NC(=O)[C@H](CO)NC1=O)C(=O)N[C@@H](CC(C)C)C(=O)N[C@@H](CCC(=O)O)C(=O)N1CCC[C@H]1C(=O)N3)NC(=O)[C@H](CCCCN)NC(=O)CNC(=O)[C@H](CC(N)=O)NC(=O)[C@H](CCSC)NC2=O [SEQ ID NO: 57],resistance to trypsin digestion (in words),trypsin,highly resistant; also recorded: fully resistant
GSACLAEYQKCEGSTVPCCPGLSCSAGRFRKTKLCTK [SEQ ID NO: 25],resistance to incubation at 70° C. (in words),[1],resistant
same,resistance to incubation at 100° C. (in words),[1],various degrees of degradation
GSACQFWSCNSSCISRGYRQGYCWGIQYKYCQCQ [SEQ ID NO: 17],resistance to incubation at 100° C. (in words),[1],resistant
GSEVIRCSGSKQCYGPCKQQTGCTNSKCMNKVCKCYGCG [SEQ ID NO: 23],resistance to incubation at 70° C. (in words),[1],resistant
same,resistance to incubation at 100° C. (in words),[1],various degrees of degradation
